Stoichiometry N, binding result and Kd data for 10 molecules are collected here from publication PMC9402713, “Structural analysis of Red1 as a conserved scaffold of the RNA-targeting MTREC/PAXT complex” (Nature Communications, 2022).

The target in test [1] is His-MBP-Red1 452-524 (S. pombe) (UniProt Q9UTR8). The test is described as follows: SEC-MALS; His-MBP-Red1 452-524, the dimer peak, injected at 9 mg/ml; stayed dimeric on reinjection.
For test [2], the target named is Ars2 68-183,206-531 (S. pombe) (UniProt O94326). The experiment in a line: SEC-MALS; Ars2 68-183,206-531, the dimer peak of the size exclusion chromatography.
The target of test [3] is T1, His-GST-tagged human ARS2 147-871 (human, UniProt Q9BXP5 147-871).
T1 construct: ARS2 (SRRT), human, residues 147-871; vector pETM30; also called hARS2^147–871; His-GST-ARS2; source: E. coli BL21Star (DE3), purified (Ni^2+ chelating Sepharose)
T1 sequence (looked up): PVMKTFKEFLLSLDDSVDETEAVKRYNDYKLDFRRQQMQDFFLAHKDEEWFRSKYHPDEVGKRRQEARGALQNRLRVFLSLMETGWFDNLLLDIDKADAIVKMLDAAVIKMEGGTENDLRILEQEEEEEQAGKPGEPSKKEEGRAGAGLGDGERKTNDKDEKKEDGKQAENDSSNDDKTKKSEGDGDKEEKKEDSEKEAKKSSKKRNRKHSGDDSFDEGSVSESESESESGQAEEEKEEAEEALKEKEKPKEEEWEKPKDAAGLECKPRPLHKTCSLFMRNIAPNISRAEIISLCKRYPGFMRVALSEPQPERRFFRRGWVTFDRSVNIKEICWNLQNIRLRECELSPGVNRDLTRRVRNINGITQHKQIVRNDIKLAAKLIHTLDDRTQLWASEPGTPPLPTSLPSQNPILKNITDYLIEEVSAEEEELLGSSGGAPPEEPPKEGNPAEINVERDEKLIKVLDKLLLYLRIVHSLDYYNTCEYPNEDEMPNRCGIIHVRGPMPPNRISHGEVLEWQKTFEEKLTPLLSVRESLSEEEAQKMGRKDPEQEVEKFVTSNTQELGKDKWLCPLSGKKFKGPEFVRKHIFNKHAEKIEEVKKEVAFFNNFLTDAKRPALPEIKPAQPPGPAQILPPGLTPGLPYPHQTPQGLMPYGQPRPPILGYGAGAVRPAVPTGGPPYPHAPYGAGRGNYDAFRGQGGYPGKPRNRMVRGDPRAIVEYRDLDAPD
The test is described as follows: pull-down; MBP pull-down: Ni-purified His-MBP-peptide held on amylose resin, His-GST-ARS2 added; 20 mM Tris pH 8, 100 mM NaCl; eluted with 10 mM maltose. Conditions: both partners purified.

For test [4], the target named is Strep-Iss10 1-45 (S. pombe). The test is described as follows: SEC-MALS; co-purified Red1 192-236 / Iss10 1-45 complex on Superdex 200 10/300 GL, 4 °C, 20 mM Tris-HCl pH 8, 100 mM NaCl, 5 mM β-mercaptoethanol.
Test [5] has as its target T2, Strep-Ars2 107-527 (S. pombe, UniProt O94326 107-527).
T2 construct: vector pETM41; source: E. coli BL21Star (DE3), purified (Ni^2+ chelating Sepharose); not shown: Strep-tag, C-terminal, kept
T2 sequence (looked up): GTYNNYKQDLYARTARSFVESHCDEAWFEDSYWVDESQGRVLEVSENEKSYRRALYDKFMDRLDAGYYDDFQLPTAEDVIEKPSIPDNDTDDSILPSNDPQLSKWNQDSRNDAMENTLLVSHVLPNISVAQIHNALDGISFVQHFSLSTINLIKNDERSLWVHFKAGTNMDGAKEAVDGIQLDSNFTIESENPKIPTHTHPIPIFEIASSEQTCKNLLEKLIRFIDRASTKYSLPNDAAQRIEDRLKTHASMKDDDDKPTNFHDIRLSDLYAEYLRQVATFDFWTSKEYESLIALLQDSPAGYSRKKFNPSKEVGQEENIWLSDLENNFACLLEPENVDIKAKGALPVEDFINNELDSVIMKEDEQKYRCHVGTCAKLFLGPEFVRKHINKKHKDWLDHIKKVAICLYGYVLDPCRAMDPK
The test is described as follows: ITC; 25 °C, 0.4-0.8 mM Red1 injected into 30-40 µM Ars2, 20 mM Tris pH 8.0, 100 mM NaCl, one-site model. To be noted: both partners purified.

Test [6] deals with T2, Strep-Ars2 107-527. The experiment in a line: ITC; 25 °C, 0.4-0.8 mM Red1 injected into 30-40 µM Ars2, 20 mM Tris pH 8.0, 200 mM NaCl, one-site model. To be noted: both partners purified.
In test [7] the target is T3, full-length (FL) His-MBP-Ars2 (S. pombe, UniProt O94326 1-609).
T3 construct: Ars2, S. pombe, 609 residues; the tags are named on the protein for the gel filtration; also called FL Ars2; full-length Ars2; source: E. coli, expressed as MBP fusion, purified (amylose resin, Superdex 200)
T3 sequence (looked up): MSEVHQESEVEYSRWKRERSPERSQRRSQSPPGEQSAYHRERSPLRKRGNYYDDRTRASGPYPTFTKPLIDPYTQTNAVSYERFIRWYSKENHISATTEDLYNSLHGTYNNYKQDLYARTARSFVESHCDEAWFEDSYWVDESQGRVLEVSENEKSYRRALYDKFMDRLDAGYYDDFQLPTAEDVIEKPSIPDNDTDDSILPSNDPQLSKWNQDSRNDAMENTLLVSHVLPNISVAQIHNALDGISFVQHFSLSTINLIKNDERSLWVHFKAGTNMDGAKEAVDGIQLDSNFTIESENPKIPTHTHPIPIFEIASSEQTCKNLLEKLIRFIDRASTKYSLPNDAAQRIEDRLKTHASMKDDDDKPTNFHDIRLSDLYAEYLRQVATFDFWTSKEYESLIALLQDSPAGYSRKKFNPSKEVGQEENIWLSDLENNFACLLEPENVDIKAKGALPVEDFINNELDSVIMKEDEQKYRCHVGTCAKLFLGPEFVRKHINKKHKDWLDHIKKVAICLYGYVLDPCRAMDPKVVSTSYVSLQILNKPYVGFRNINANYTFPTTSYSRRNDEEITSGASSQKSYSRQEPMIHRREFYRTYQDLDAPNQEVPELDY
Described as above. Conditions: both partners purified.

In test [8] the target is full-length (FL) His-MBP-Ars2 (S. pombe) (UniProt O94326). Described as above.
Test [9] concerns the target T4, full-length (FL) His-MBP-Ars2 (S. pombe, UniProt O94326 1-609).
T4 chain: T3 sequence (looked up)
The test is described as follows: ITC; 200 mM NaCl.

The target of test [10] is T5, Ars2 (58-609) (Schizosaccharomyces pombe).
T5 chain: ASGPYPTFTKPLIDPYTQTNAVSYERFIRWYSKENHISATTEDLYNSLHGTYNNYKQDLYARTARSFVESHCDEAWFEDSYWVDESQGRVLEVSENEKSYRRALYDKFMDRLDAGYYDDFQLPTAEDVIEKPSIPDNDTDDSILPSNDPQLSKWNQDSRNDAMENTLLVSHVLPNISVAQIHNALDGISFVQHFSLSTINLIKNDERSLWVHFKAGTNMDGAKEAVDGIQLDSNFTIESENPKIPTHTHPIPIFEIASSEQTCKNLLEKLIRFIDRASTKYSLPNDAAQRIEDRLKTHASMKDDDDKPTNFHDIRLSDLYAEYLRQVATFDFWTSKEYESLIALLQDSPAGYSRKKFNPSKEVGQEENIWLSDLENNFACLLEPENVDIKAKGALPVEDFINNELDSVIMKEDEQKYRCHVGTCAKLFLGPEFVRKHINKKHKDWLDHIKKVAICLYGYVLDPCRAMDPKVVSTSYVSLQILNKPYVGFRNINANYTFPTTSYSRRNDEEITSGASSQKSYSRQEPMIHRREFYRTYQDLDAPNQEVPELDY
The experiment in a line: ITC; 200 mM NaCl.

Where no end group is shown, it is not given here.

For “His-MBP-Red1 452-524 (from UniProt Q9UTR8 452-524) (domain or fragment)”, the stoichiometry N in test [1] came out at 2.

Turning to “Ars2 68-183,206-531 (from UniProt O94326 68-183; O94326 206-531) (domain or fragment)”, the stoichiometry N in [2] was 2.

B1: His-MBP-ZFC3H1 12-33 I27L (domain or fragment, human, UniProt O60293 12-33, looked up)
chain: SGLSPKEEGELEDGELSDDDNN
notes: ZFC3H1, human, residues 12-33; source: E. coli BL21Star (DE3), purified (Ni^2+ chelating Sepharose)
In the case of B1, the binding result in test [3] is given as “binds”.

B2: His-MBP-ZFC3H1 20-31 (domain or fragment, human, UniProt O60293 20-31, looked up)
chain: GELEDGEISDDD
notes: ZFC3H1, human, residues 20-31 (12 residues); source: E. coli BL21Star (DE3), purified (Ni^2+ chelating Sepharose)
For the molecule B2, the binding result in test [3] is “binds”.

TTNQKEAEKAVSQLFEVGVRFNDFIAEGIEPSVVHTLFLKLGLDS (domain or fragment) [Red1 192-236, His-MBP tag cleaved] yielded a stoichiometry N in test [4] of 1.

B3: His-MBP-Red1 20-40 (domain or fragment, S. pombe)
chain: KNEEDESNDSDKEDGEISEDD
notes: Red1, S. pombe, residues 20-40 with the EDGEI motif; vector pETM41; also called MBP-Red1 EDGEI motif-containing peptide; source: E. coli BL21Star (DE3), purified (Ni^2+ chelating Sepharose or amylose resin, Superdex 200)
In the case of B3, the values for the Kd in [5], in [6] and in test [7] were 0.8 µM, 5 µM and roughly 5 µM, respectively. Also, the binding result in test [3] is listed as “binds”.

B4: His-MBP-tagged ZFC3H1 12-33 (domain or fragment, human, UniProt O60293 12-33, looked up)
chain: SGLSPKEEGELEDGEISDDDNN
notes: ZFC3H1, human, 1989 residues, residues 12-33 with the EDGEI motif; vector pETM41; also called MBP-ZFC3H1; hZFC3H1; source: E. coli BL21Star (DE3), purified (Ni^2+ chelating Sepharose)
Consider B4, for which the binding result in test [3] was “binds”.

B5: His-MBP-Red1 1-54 (domain or fragment)
chain: MSRSINLDELRKKALESKKKNEEDESNDSDKEDGEISEDDPVIDQSNSVPPMKV
For B5, the Kd is 5 µM in test [8] and 5.6 µM in [9].

B6: Red1 peptide 20-40 (peptide)
peptide: KNEEDESNDSDKEDGEISEDD
notes: Red1, S. pombe, residues 20-40 with the EDGEI motif; also called Red1^20–40 peptide; Red1 N-terminal peptide; source: synthetic peptide (PSL GMBH)
Regarding B6, the Kd in test [7] was roughly 5 µM.

In test [10], KNEEDESNDSDKEDGEISEDD (not fully specified) had a Kd of 4.4 µM.
